pKd: −log10 of the molar value.
What was measured:
Experiment in all cases: SPR; Biacore T100, 37°C, HBS-EP; biotinylated ligand captured with the Biotin CAPture Kit, reference biotinylated rat Cd4d3+4; purified his-tagged analyte injected at 20 μl/min, equilibrium fit Req = CRmax/(C+KD); lower concentrations did not reach equilibrium, KD likely slightly overestimated
[1] = target: P. vivax P41 (PVX_000995, 6-cysteine protein), entire ectodomain, AVEXIS bait/prey form (P. vivax) (UniProt A5KAP6)
[2] = target: P. falciparum P41, AVEXIS bait/prey form (P. falciparum)
[3] = target: P. vivax P12 (PVX_113775, 6-cysteine protein), entire ectodomain, AVEXIS bait/prey form (P. vivax) (UniProt A5K1W7)

| Substance | pKd [1] | pKd [2] | pKd [3] |
| --- | --- | --- | --- |
| P. vivax P12 (PVX_113775), entire ectodomain, 6-His tagged, purified (from UniProt A5K1W7 24-339) (domain or fragment) | 6.92 | 7.51 |  |
| P. vivax P41 (PVX_000995), entire ectodomain, 6-His tagged, purified (from UniProt A5KAP6 22-384) (domain or fragment) |  |  | 7.11 |

— article PMC4689532
